Results on seven molecules are retold here after publication PMC3709506, “Comparative cross-linking and mass spectrometry of an intact F-type ATPase suggest a role for phosphorylation” (Nature Communications, 2013).

T1: chloroplast ATP synthase (cATPase) subunit γ (Spinacia oleracea, UniProt P05435 42-364)
T1 construct: ATP synthase gamma chain, chloroplastic, Spinacia oleracea; also called γ-subunit; source: purified from spinach leaves as part of the intact F1FO chloroplast ATP synthase
T1 sequence (looked up): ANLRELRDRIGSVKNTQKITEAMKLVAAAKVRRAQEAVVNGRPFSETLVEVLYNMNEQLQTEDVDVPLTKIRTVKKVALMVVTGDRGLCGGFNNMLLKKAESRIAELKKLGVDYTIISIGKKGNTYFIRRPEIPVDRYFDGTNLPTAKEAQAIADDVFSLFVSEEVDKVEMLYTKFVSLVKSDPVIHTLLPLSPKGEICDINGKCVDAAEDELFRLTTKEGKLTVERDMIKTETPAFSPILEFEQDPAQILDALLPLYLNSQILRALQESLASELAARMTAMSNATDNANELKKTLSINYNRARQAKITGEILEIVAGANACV

B1: chloroplast ATP synthase (cATPase) subunit β, untreated enzyme (natural protein, Spinacia oleracea, UniProt P00825 1-498, looked up)
chain: MRINPTTSDPGVSTLEKKNLGRIAQIIGPVLDVAFPPGKMPNIYNALIVKGRDTAGQPMNVTCEVQQLLGNNRVRAVAMSATDGLTRGMEVIDTGAPLSVPVGGATLGRIFNVLGEPVDNLGPVDTRTTSPIHRSAPAFTQLDTKLSIFETGIKVVDLLAPYRRGGKIGLFGGAGVGKTVLIMELINNIAKAHGGVSVFGGVGERTREGNDLYMEMKESGVINEQNIAESKVALVYGQMNEPPGARMRVGLTALTMAEYFRDVNEQDVLLFIDNIFRFVQAGSEVSALLGRMPSAVGYQPTLSTEMGSLQERITSTKEGSITSIQAVYVPADDLTDPAPATTFAHLDATTVLSRGLAAKGIYPAVDPLDSTSTMLQPRIVGEEHYEIAQRVKETLQRYKELQDIIAILGLDELSEEDRLTVARARKIERFLSQPFFVAEVFTGSPGKYVGLAETIRGFQLILSGELDSLPEQAFYLVGNIDEATAKAMNLEMESKLKK
modifications: phosphosites identified at S8, T54
notes: ATP synthase subunit beta, chloroplastic, Spinacia oleracea; K498 is called the carboxy-terminal residue; Three copies stand in the F1 head (α3β3); also called β-subunit; source: purified from spinach leaves as part of the intact F1FO chloroplast ATP synthase
B2: cATPase subunit β, dephosphorylated enzyme (natural protein, Spinacia oleracea, UniProt P00825 1-498, looked up)
chain: B1 chain
notes: ATP synthase subunit beta, chloroplastic, Spinacia oleracea; as m2 but treated with phosphatase; The whole complex was treated with the phosphatase; also called β (dephosphorylated form)
B3: chloroplast ATP synthase (cATPase) subunit II, untreated enzyme (natural protein, Spinacia oleracea, UniProt P31853 76-222, looked up)
chain: EEIEKASLFDFNLTLPIIMAEFLFLMFALDKIYYTPLGDFMDKRDASIKEQLSGVKDTSSEVKQLEEQANAVMRAARAEISAALNKMKKETQLEVEAKLAEGRKKIEVELQEALGSLEQQKEDTIKSLDSQISALSDDIVKKVLPVS
modifications: phosphosites identified at S122, S211
notes: ATP synthase subunit b' (CF0 subunit II), chloroplastic, Spinacia oleracea; also called stator subunit II; peripheral stalk subunit II; source: purified from spinach leaves as part of the intact F1FO chloroplast ATP synthase
B4: cATPase subunit II, dephosphorylated enzyme (natural protein, Spinacia oleracea, UniProt P31853 76-222, looked up)
chain: B3 chain
notes: ATP synthase subunit b' (CF0 subunit II), chloroplastic, Spinacia oleracea; as m6 but treated with phosphatase; The whole complex was treated with the phosphatase; also called II (dephosphorylated form)
B5: cATPase subunit ε, dephosphorylated enzyme (natural protein, Spinacia oleracea, UniProt P00833 1-134, looked up)
chain: MTLNLCVLTPNRSIWNSEVKEIILSTNSGQIGVLPNHAPTATAVDIGILRIRLNDQWLTLALMGGFARIGNNEITILVNDAERGSDIDPQEAQQTLEIAEANLRKAEGKRQKIEANLALRRARTRVEASNTISS
notes: ATP synthase epsilon chain, chloroplastic, Spinacia oleracea; as m4 but treated with phosphatase; The whole complex was treated with the phosphatase; also called ε (dephosphorylated form)
B6: chloroplast ATP synthase (cATPase) subunit ε, untreated enzyme (natural protein, Spinacia oleracea, UniProt P00833 1-134, looked up)
chain: B5 chain
modifications: phosphosite identified at S13
notes: ATP synthase epsilon chain, chloroplastic, Spinacia oleracea; also called ε-subunit; source: purified from spinach leaves as part of the intact F1FO chloroplast ATP synthase
B7: cATPase subunit α, dephosphorylated enzyme (natural protein, Spinacia oleracea, UniProt P06450 1-507, looked up)
chain: MATIRADEISKIIRERIEGYNREVKVVNTGTVLQVGDGIARIHGLDEVMAGELVEFEEGTIGIALNLESNNVGVVLMGDGLMIQEGSSVKATGRIAQIPVSEAYLGRVINALAKPIDGRGEITASESRLIESPAPGIMSRRSVYEPLQTGLIAIDAMIPVGRGQRELIIGDRQTGKTAVATDTILNQQGQNVICVYVAIGQKASSVAQVVTNFQERGAMEYTIVVAETADSPATLQYLAPYTGAALAEYFMYRERHTLIIYDDLSKQAQAYRQMSLLLRRPPGREAYPGDVFYLHSRLLERAAKLSSLLGEGSMTALPIVETQAGDVSAYIPTNVISITDGQIFLSADLFNAGIRPAINVGISVSRVGSAAQIKAMKKVAGKLKLELAQFAELEAFAQFASDLDKATQNQLARGQRLRELLKQPQSAPLTVEEQVMTIYTGTNGYLDSLELDQVRKYLVELRTYVKTNKPEFQEIISSTKTFTEEAEALLKEAIQEQMERFLLQEQA
notes: ATP synthase subunit alpha, chloroplastic, Spinacia oleracea; as m1 but treated with phosphatase; The whole complex was treated; also called α (dephosphorylated form)

Settings in all cases: both partners purified
Experiment [1] deals with T2, chloroplast ATP synthase (cATPase) subunit α, untreated enzyme (Spinacia oleracea, UniProt P06450 1-507, phosphosites identified at S127, Y196, S369, T442).
T2 construct: ATP synthase subunit alpha, chloroplastic, Spinacia oleracea; Three copies stand in the F1 head (α3β3); also called α subunit; source: purified from spinach leaves as part of the intact F1FO chloroplast ATP synthase
Nature of the experiment: cross-linking; untreated cATPase, 1:1 mixture of 2.5 mM BS3-d4 and 2.5 mM BS3-d0, 1 h at room temperature; NuPAGE gel, in-gel digestion, LC-MS/MS, MassMatrix search, manual validation.

In experiment [2] the target is B7. In words: cross-linking; comparative: dephosphorylated cATPase (calf intestinal alkaline phosphatase, 37 °C) cross-linked with 2.5 mM deuterated BS3, untreated cATPase with non-deuterated BS3, pooled; areas of extracted ion chromatograms of heavy and light cross-links compared.
The target in experiment [3] is B1. In words: cross-linking; untreated cATPase, 1:1 mixture of 2.5 mM BS3-d4 and 2.5 mM BS3-d0, 1 h at room temperature; NuPAGE gel, in-gel digestion, LC-MS/MS, MassMatrix search, manual validation.
For experiment [4], the target named is B2. Nature of the experiment: cross-linking; comparative: dephosphorylated cATPase (calf intestinal alkaline phosphatase, 37 °C) cross-linked with 2.5 mM deuterated BS3, untreated cATPase with non-deuterated BS3, pooled; areas of extracted ion chromatograms of heavy and light cross-links compared.
Experiment [5] concerns the target T1, chloroplast ATP synthase (cATPase) …. Nature of the experiment: cross-linking; untreated cATPase, 1:1 mixture of 2.5 mM BS3-d4 and 2.5 mM BS3-d0, 1 h at room temperature; NuPAGE gel, in-gel digestion, LC-MS/MS, MassMatrix search, manual validation.

Regarding B1, the binding result in experiment [1] is given as “binds”.

For the molecule B2, in experiment [2], the binding result is listed as “binds”.

As for B3, the binding result in experiment [3] and in experiment [1] was “binds” each time.

B4: the binding result in experiment [2] and in experiment [4] was “binds” each time.

Turning to B5, the binding result in experiment [2] and in experiment [4] was “binds” each time.

Regarding B6, the binding result in experiment [5], in experiment [3] and in experiment [1] was “binds” in each case.

Take B7: in experiment [4], the “fold decrease of cross-link intensity against the untreated enzyme (two cross-links, β loops to α C-terminal domain)” value is over 10 fold and the “fold decrease of the intensity of the K378-K498 cross-link against the untreated enzyme” value is about 5 fold.
